Drawing on patent publication US20120201826A1, this text covers Chemotaxis IC50 (nM); L1.2 cells expressing hCCR5, 1 nM huRANTES; scFv format for one molecule.

The assay deals with recombinant human RANTES (huRANTES, Peprotech) (human) (UniProt P13501). Briefly: cell-based or functional assay.
recombinant human RANTES (huRANTES, Peprotech) (human), sequence (P13501 24-91): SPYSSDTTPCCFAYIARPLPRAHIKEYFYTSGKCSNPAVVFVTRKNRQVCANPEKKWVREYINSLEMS

B1: A5 scFv (scFv, part only; not given: linker and tags, part only)
scFv, part: QVQLVQSGAEVKKPGASVKVSCKVSGYALSELSIHWVRQAPGKGLEWMSYIDPEDGEPIYAQKFQGRATMTEDSSTDTAYMEMGSLTSDDTAVYYCAGVTGSTSDAFDLWGRGTLVTVSSSYVLTQDPSVSVAPGQTARITCGGANLWGLGVHWYQQKSGQAPVLVVSDNSDRASGIPERFSGSNSGTTATLTLSRVEVGDEADYYCQVWDSSSDHWVFGGRTKLTVL
As for B1, the Chemotaxis IC50 (nM); L1.2 cells expressing hCCR5, 1 nM huRANTES; scFv format was 21 nM.
